Data published in the nanobody polyreactivity screen of Harvey et al. (2022).

Assay: yeast display, Sf9 membrane polyspecificity reagent, FACS + sequencing; frameworks hold sequencing errors
How it was run: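 Sorting gates, low and high (top ~1%), were placed on anti-HA fluorescence to track expression and on streptavidin fluorescence to track reagent binding. A clone's polyreactivity label is taken from the gate it came out of. The reagent was 10% biotinylated, detergent-solubilized Sf9 membrane, applied for 1 hour at 4 °C to galactose-induced yeast display cells.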

Sequence	polyreactivity (PSR sort gate)
QVHLVESVGGLVQAGGSLRLICAASGRIFRRYAMGWYIQAPGKEREFVAAISYGGGSTYYADSVKGRFTISRDNAKNTVYLQMNSLKPEDSAVYYCNADVPKSLLLYYPWGYGYWGQGTQVTVSS	low polyreactivity
QVQLVESGGGLVQAGGSLRLTCAASGRIFNIYAMGWYRQAPGKERELVAAISVSGTRTYYADSVKGRFTISRDNAKNTVYLHMNSLKPEDTAVYYCAADSYGGVWTEHMYYWGQGTQVTVSS	low polyreactivity
QVQLVESGGGLVQAGGSLRLSCAASGLIFRGYTMGWYRQAPGKEREFVAAITRRGTSTYYADSVKGRFTISRDNAKNTVYLQMNSLKPEDTAVYYCAARSVSGPRGYPYDYWGQGTQVTVSS	high polyreactivity
QVQLVESVGGLVQAGGSLRISCAASGFIFEVYAMGWYRQAPGKERELIAAIRWSGTSTYYAYSVKGRFTISRDNAKNTFYLQMNSLKPEDTAVYYCAADSWDWHIGGEDYWGQGTQVTVSS	low polyreactivity
QVQLVESGGGLVQAGGSLRLICAASGRTFGVYAMGWYRQAPGKERELVADITSGGGTYYADSVKGRFTILRDNAKNTFYLQMNSLKPEDTAVYYFAARKWYYAYDYWGQGTQVTVSS	high polyreactivity
QVQLVESGGGLVQAGGSLRLSCAASGLTFGVNAMGWSRQAPGKERELVAAISGSGGRTNYADSVKGRFTISRDNAKNTVYLQMNSLKPEDTAVYYCNARFPDWALSEISHSTTYGYWGQGTQVTVSS	low polyreactivity
QVQLVESGGGLVQAGGSLRLSCAASGITLGRYAMGWYRQAPGKERELVAAISRSGGSTYYADSVKGRFTISRDNEKNTVYLLMNSLKPEDTAVYYCNRRVYPTSDYDYWGQGTQVTVSS	high polyreactivity
QVQLVESGGGLVQAGGSLRLSCAASGSIFSWYAMGWYRQAHGKEREFVAGISSSGSTKYADSVKGRFTISRDNAKNTVYLQMNSLKPEDTAVYYCAVANKSQRYFYYYFHYYYWGQGTQVTVSS	low polyreactivity
QVQLVESGGGLVQAGGSLRLSCAASGSTFYVNVMGWYRQAPGKERELVADISNDGSTHYADSVKGRFTISRDTAKNTVYLQMNSLKPEDTAVYYCNAEEIDEASYAYPPLEYDYWGQGTQVTVSS	low polyreactivity
QVQLVESGGGLVQAGGSLRLSCAASGSTFLRYAMGWYRQAPGKERELVAAITASGGSTYYADSVKGRFTISRDNAKNTVYLEMNSLKPEDTAVYYCAADGRYIGKNSHDLWIYGYYYWGQGTQVTVSS	low polyreactivity
QVQLVETGGGLVQAGGSLRLSCAASGLIFYSYTMGWYRQAPGKERELVAVISRSGTSTYYADSVKGRFTISRDNAKNTVYLQMNSLKPEDTAVYYCAARAYVSHYGVSNFGYYYWGQGTQVTVSS	high polyreactivity
QVQLVESGGGIVQAGGSLRLSCAASGFIFYRYAMGWYRQAPGKERELVAAITGSGARTYYADSVKGRFTISRDNAKNTVYLQMNSLKPEDTAVYYCNARGYRGYDYWGQGTQVTVSS	high polyreactivity
QVQLVESGGGLVQAGGSLRLRCAASGISFRRNVMGWCRQAPGKERELVARISRAGSTKYADSVKGRFTISRDTAKNTVYLQMTSLKPEDTAVYYCNKVTRRNGQPYDYWGQGTQVTVSS	high polyreactivity
QVQLVESGGGLVQAGGSLRLSCAASGRIFVIYGMGWYRQAPGKERELVAAIRWTGGSTYFADSVKGRFTISRDNAKNTVYLQMNSLKPEDTAVYYCNAGSDRAIWPTHDYWGQGTQVTVSS	low polyreactivity
QVQLVESGGGLVQAGGSLRLSCAASGRIFYGNAMGWYRQAPGKERELVAAISSGTSTNYADSVKGRFTISRDNAKNTVYLEMNRLKPEDTAVYDCAAGSYSRYLYSLYFDFDYWGQGTQVTVSS	low polyreactivity
QVQLVDSGGGLVQAGGSLRLSCAATGRIFAGYAMGGYRQAPGKERELVAAISDGGTTNYADSVKGRFTISRDNAKNTVYLQMNILKPEDTAVYYCAKDAAESYRYGYWGQGTQVTVSS	low polyreactivity

Sequence	polyreactivity (PSR sort gate)
QVQVVESGGGLVQAGGSLSLSCAASGSTVGKYAMGWYRPAPGKERELVASITWSGASTFYADSVKGRFTISRDTAKTTVYLQLNSLKPEDTAVYYCAARSYKSYYIFDYWGQGTQVTVSS	low polyreactivity
QVQLVESGGGLVQAGGSLRLSCAASGRTFTFNAMGWYRQAPGKERELVAAITRSGGRTYYADSVKGRFTISRDNAKNTVYLQMNSLKPEDTAVYYCAAEWEYSWYDYDYWGQGTQVTVSS	high polyreactivity
QVQLVESGGGLVQAGGSLRLSCAASGSIFDVNAMGWYRQAPGKERELVAAITSSGGSTYYADSVKGRFTISRDNAKNTVYLQMNSLKPEDTAVYYCAAYSLYTMYWGQGTQVTVSS	low polyreactivity
QVQLVESGGGLVQAGGSLRLSCAASGRTSWYYAMGWYRQAPGKERELVAAITASGGSTYADSVKWRFTISRDNAKNTVYLQMNSLKPEDTAVYYCAAERPYSRVGYYYWGQGTQVTVSS	high polyreactivity
QVQLVESGGGLVQAGGSLRLSCAASGRTFATYAMGWYRQAPGKERELVAAISNSGGRTNYADSVKGRFTISRDNAKNTVYLQMNSLKPEDTAVYYCAAAKRYYSEMYWGQGTQVTVSS	high polyreactivity
QVQLVESGGGLVQAGGSLRLSCAASGGTFDWNAMGWYRQAPGKERELVASISSSGGSTYYADSVNGRFTISRDNAKNTVYLQMNSLKPEDTAVYYCNAERKIIAYLWWYDYWGQGTQVTVSS	low polyreactivity
QVQLVESGGGLVQAGGSLRLSCAASGFNFYCNAMGWYRQAPGKERELVATIRYRGGRTYYADSVKGRFTISRDNEKNTVYLQMNSLKPEDTAVYYCNTRSVYHRYDYDYWGQGTQVTVSS	high polyreactivity
QVQLVESGGGLVQAGGSLRLSCAASGRIFKTYAMGWYRQAPGKERELVAGISWRGGSTYYADSVKGRFTISRDNAKNTVYLQMNSLKPEDTAVYYCAADDTYTRYDYWGQGTQVTVSS	high polyreactivity
QVQLVESGGGLVQAGRTLRLSCAASGSTFSVYGMVWYRQAPGKERELVAINIIGGSTYYADSVKGRFTISRDNAKYTVYLQMNSLKPEDTAVFYCAADSFPSEFDYWGQGTQVTVSS	low polyreactivity
QVQLVESGGGLVQAGGSLRLSCAATGRISVFYTMRWYRQPPGKATELVAVIRTSVGRTNYADYVKGRFTISRVNAKNTVYLQMNSLKPEDTAVYYCAAGVVSYGYNYYYWGQGTQVTVSS	low polyreactivity
QVQLVESGGGLVQAGGSLRLSCAASGITFTYYAMGWYRQAPGKERELVASITIGGGSTYYADSVKGRFTISRDNAKKTVYLQLNSLKPEYTAVYYCNAAFSVRHLYRYDYWGQGTQVTVSL	low polyreactivity
QVQLVESGGGLVQAGGSLRLSCAASGSIFGTYTMGWYRQAPGKERELVAAISRSGTSTYYADSVKGRFTISRDNAKNTVYLQMNSLKPEDTAVYYCAASPDPYWRRMDYWGQGTQVTVSS	high polyreactivity
QVQLQESGGGLVQAGGSLRLSCAASGSISSRDAMGWYRQAPGKEREFVATIASGTTTYYADSVKGSFTISRDNAENTVYLQTNSLKPEDTAVYYCAAPTIQIYPFYYWGQGTQVTVSS	high polyreactivity
QDQLVESGGGLVQAGGSLRLSCAASGRIFKYNAMGWYRQAPRKERELVAAITRGGSTNYADSVKGRFTISRDNAKNTVYFQLNSLKPEDTEVYYCAALRSRYGRDMDSWGQGTQVSVSS	high polyreactivity
QGQLVESGGGLVQAGGSLRLSCAASGLTLYYYAMGWYIQAPGKERELVAAINRGGSTYYADSVKGRFTISRDNAKNTVYLQMNSLKPEDTAVYYCAVDYGVRDLTYYYWGQGTQVTVSS	low polyreactivity
QVQLVESGGGLVQAGGSLRLSCAASGRIFGYYAMGWYRQAPGKERELVAAISNGGSTHYADSVKGRFTISRDNANNTVYLQMTSLKPEDTAVYYCAAKASRVDWGYGYWGQGTQVTVSS	high polyreactivity
